Reference: publication PMC11229326, “Structural characterization of two prototypical repressors of SorC family reveals tetrameric assemblies on DNA and mechanism of function” (Nucleic Acids Research, 2024)

Assays:
DeoR [1] = biological target: T1, DeoR (Bacillus subtilis, UniProt P39140 2-313); experiment: SEC; about 56 uM DeoR, protein:DNA 4:1; MST: 50 mM Tris-HCl pH 7.5, 150 mM NaCl, 50 mM MgCl2, 2 mM EDTA, 0.02% beta-mercaptoethanol; DeoR SEC mixes incubated 30 min on ice; CggR storage 20 mM Tris-HCl pH 7.5, 100 mM NaCl, 0.02% beta-mercaptoethanol, complex formed 30 min on ice; conditions: protein: recombinant; tags: N-terminal GIDPFT cloning artifact after TEV cleavage (His6-V5 removed); chain copies: 4; blunt
T1 sequence: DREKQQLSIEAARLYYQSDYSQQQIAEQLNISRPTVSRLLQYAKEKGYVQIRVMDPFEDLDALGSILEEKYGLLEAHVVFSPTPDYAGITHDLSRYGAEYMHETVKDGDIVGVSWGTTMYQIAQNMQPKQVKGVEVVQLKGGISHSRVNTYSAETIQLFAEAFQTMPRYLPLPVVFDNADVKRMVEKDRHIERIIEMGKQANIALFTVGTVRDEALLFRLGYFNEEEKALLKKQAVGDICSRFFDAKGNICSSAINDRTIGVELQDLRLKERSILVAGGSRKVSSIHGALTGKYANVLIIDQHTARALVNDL

DeoR [2] = biological target: T1, DeoR; experiment: X-ray crystallography; 3.7 A; protein about 8 mg/ml; 75 mM CaCl2, 25 mM MgCl2; MST: 50 mM Tris-HCl pH 7.5, 150 mM NaCl, 50 mM MgCl2, 2 mM EDTA, 0.02% beta-mercaptoethanol; DeoR SEC mixes incubated 30 min on ice; CggR storage 20 mM Tris-HCl pH 7.5, 100 mM NaCl, 0.02% beta-mercaptoethanol, complex formed 30 min on ice; conditions: protein: recombinant; tags: N-terminal GIDPFT cloning artifact after TEV cleavage (His6-V5 removed); chain copies: 4; blunt
DeoR [3] = biological target: T1, DeoR; experiment: SEC; about 56 uM DeoR, protein:DNA 2:1; MST: 50 mM Tris-HCl pH 7.5, 150 mM NaCl, 50 mM MgCl2, 2 mM EDTA, 0.02% beta-mercaptoethanol; DeoR SEC mixes incubated 30 min on ice; CggR storage 20 mM Tris-HCl pH 7.5, 100 mM NaCl, 0.02% beta-mercaptoethanol, complex formed 30 min on ice; conditions: protein: recombinant; tags: N-terminal GIDPFT cloning artifact after TEV cleavage (His6-V5 removed); chain copies: 4; blunt
[4] = biological target: the molecule itself; experiment: crystal structure; DeoR co-crystallised with the 18 bp DNA duplex OL18 (left half-operator); hanging drop, 18°C; two dimers in the asymmetric unit, tetramer formed with a symmetry-related dimer; 3.7 Å
[5] = biological target: the molecule itself; experiment: cryo-EM 2D classification; purified CggR-OLR complex (0.86 mg/ml) with 2 mM FBP, about 15 min on ice
[6] = biological target: the molecule itself; experiment: cryo-EM structure; CggR with the 45 bp operator DNA OLR (molar ratio 4:1.5), SEC-purified complex, 0.86 mg/ml; C2 symmetry, 4.3 Å
CggR = CggR (Bacillus subtilis, UniProt O32253 1-340); experiment: cryo-EM; 4.3 A; tetramer, no effector; MST: 50 mM Tris-HCl pH 7.5, 150 mM NaCl, 50 mM MgCl2, 2 mM EDTA, 0.02% beta-mercaptoethanol; DeoR SEC mixes incubated 30 min on ice; CggR storage 20 mM Tris-HCl pH 7.5, 100 mM NaCl, 0.02% beta-mercaptoethanol, complex formed 30 min on ice; conditions: protein: recombinant; tags: N-terminal GIDPFT cloning artifact after TEV cleavage (His6-V5 removed); chain copies: 4; blunt
DeoR [7] = biological target: T1, DeoR; experiment: MST; DeoR 4 uM; 50 mM MgCl2; Hill coefficient slightly below 1; MST: 50 mM Tris-HCl pH 7.5, 150 mM NaCl, 50 mM MgCl2, 2 mM EDTA, 0.02% beta-mercaptoethanol; DeoR SEC mixes incubated 30 min on ice; CggR storage 20 mM Tris-HCl pH 7.5, 100 mM NaCl, 0.02% beta-mercaptoethanol, complex formed 30 min on ice; conditions: protein: recombinant; tags: N-terminal GIDPFT cloning artifact after TEV cleavage (His6-V5 removed); chain copies: 4; blunt

B1: OLR39 (dsDNA)
DNA 1: ATTGAACAAAATTTCAATTACCAATTTACATATGTTCAA
DNA 2: TTGAACATATGTAAATTGGTAATTGAAATTTTGTTCAAT
**Q.** Does B1 bind (DeoR [1])?
**A.** binds

B2: OL18 (dsDNA)
DNA 1: ATTGAACAAAATTTCAAT
DNA 2: ATTGAAATTTTGTTCAAT
**Q.** Does B2 bind (DeoR [2])?
**A.** binds

B3: OR24 (dsDNA)
DNA 1: TACCAATTTACATATGTTCAAAAG
DNA 2: CTTTTGAACATATGTAAATTGGTA
**Q.** Does B3 bind (DeoR [3])?
**A.** no binding

B4: OL44 (dsDNA)
DNA 1: CACGTTCAAACCTTTCATTGAACAAAATTTCAATTACCAATTTACA
DNA 2: TGTAAATTGGTAATTGAAATTTTGTTCAATGAAAGGTTTGAACGTG
**Q.** Does B4 bind (DeoR [1])?
**A.** no binding

B5: DeoR from Bacillus subtilis (deoxyribonucleoside regulator, SorC/DeoR subfamily repressor) (natural protein)
chain: GIDPFTDREKQQLSIEAARLYYQSDYSQQQIAEQLNISRPTVSRLLQYAKEKGYVQIRVMDPFEDLDALGSILEEKYGLLEAHVVFSPTPDYAGITHDLSRYGAEYMHETVKDGDIVGVSWGTTMYQIAQNMQPKQVKGVEVVQLKGGISHSRVNTYSAETIQLFAEAFQTMPRYLPLPVVFDNADVKRMVEKDRHIERIIEMGKQANIALFTVGTVRDEALLFRLGYFNEEEKALLKKQAVGDICSRFFDAKGNICSSAINDRTIGVELQDLRLKERSILVAGGSRKVSSIHGALTGKYANVLIIDQHTARALVNDL
notes: cloning artifact that remains at the N-terminus after TEV PR cleavage; DBD residues 1-55, EBD residues 56-313; in the crystal model residue T1 is the last residue of the cloning artifact; also called apo-DeoR; source: E. coli BL21 (DE3), purified (Ni-NTA, TEV PR cleavage, reverse Ni-NTA); LB broth for structural studies, minimal medium for mass photometry and SEC; not shown: His6, N-terminal, …
**Q.** How did the “stoichiometry N” value [4] turn out when B5 was run?
**A.** 4

B6: CggR from Bacillus subtilis (central glycolytic genes regulator, SorC/CggR subfamily repressor) (natural protein)
chain: GIDPFTMNQLIQAQKKLLPDLLLVMQKRFEILQYIRLTEPIGRRSLSASLGISERVLRGEVQFLKEQNLVDIKTNGMTLTEEGYELLSVLEDTMKDVLGLTLLEKTLKERLNLKDAIIVSGDSDQSPWVKKEMGRAAVACMKKRFSGKNIVAVTGGTTIEAVAEMMTPDSKNRELLFVPARGGLGEDVKNQANTICAHMAEKASGTYRLLFVPGQLSQGAYSSIIEEPSVKEVLNTIKSASMLVHGIGEAKTMAQRRNTPLEDLKKIDDNDAVTEAFGYYFNADGEVVHKVHSVGMQLDDIDAIPDIIAVAGGSSKAEAIEAYFKKPRNTVLVTDEGAAKKLLRDE
notes: cloning artifact that remains at the N-terminus after TEV PR cleavage; DBD and EBD connected by residues 92-94; also called apo-CggR; source: E. coli BL21 (DE3), purified (Ni-NTA, hydroxyapatite, TEV PR cleavage, reverse Ni-NTA, Mono-Q ion exchange); not shown: His6, N-terminal, cleaved
**Q.** With B6 as the binder, how does the “stoichiometry N” value [5] read?
**A.** 2

**Q.** What about the “stoichiometry N” value [6] of the same binder?
**A.** 4

B7: CggR OLR (45 bp) (dsDNA)
DNA 1: TGACGGGACGTTTTTTGTCATAGCGGGACATATAATGTCCAGCAA
DNA 2: TTGCTGGACATTATATGTCCCGCTATGACAAAAAACGTCCCGTCA
**Q.** Does B7 bind (CggR)?
**A.** binds

B8: OLR65 (dsDNA)
DNA 1: GTGACACGTTCAAACCTTTCATTGAACAAAATTTCAATTACCAATTTACATATGTTCAAAAGTCG
DNA 2: CGACTTTTGAACATATGTAAATTGGTAATTGAAATTTTGTTCAATGAAAGGTTTGAACGTGTCAC
**Q.** B8 was tested. Which Kd (DeoR [7]) did it give?
**A.** ~30 µM
